Target: HLA-A*02:01 (Homo sapiens, UniProt P04439, D140Y/D185E/D98H/E176V/E277Q/G131W/G231S/I119V/I121R/I166T/I218V/L300P/L318F/N151K/N90K/P208A/P217A/Q86G/Q94H/R138H/R169H/T345S)
Experiment: MHC binding assay (UV-ligand exchange, beta2m ELISA)
Details: binding of HLA-class I restricted peptides to HLA-A*02:01, β2m ELISA
Description: Candidate peptides for T cell based therapies according to the present invention were further tested for their MHC binding capacity (affinity). The individual peptide-MHC complexes were produced by UV-ligand exchange, where a UV-sensitive peptide is cleaved upon UV-irradiation, and exchanged with the peptide of interest as analyzed. Only peptide candidates that can effectively bind and stabilize the peptide-receptive MHC molecules prevent dissociation of the MHC complexes. To determine the yield of the exchange reaction, an ELISA was performed based on the detection of the light chain (β2m) of stabilized MHC complexes. The assay was performed as generally described in Rodenko et al. (Rodenko et al., 2006).
96 well MAXISorp plates (NUNC) were coated over night with 2 ug/ml streptavidin in PBS at room temperature, washed 4× and blocked for 1 h at 37° C. in 2% BSA containing blocking buffer. Refolded HLA-A*02:01/MLA-001 monomers served as standards, covering the range of 15-500 ng/ml. Peptide-MHC monomers of the UV-exchange reaction were diluted 100 fold in blocking buffer. Samples were incubated for 1 h at 37° C., washed four times, incubated with 2 ug/ml HRP conjugated anti-β2m for 1 h at 37° C., washed again and detected with TMB solution that is stopped with […]. Absorption was measured at 450 nm. Candidate peptides that show a high exchange yield (preferably higher than 50%, most preferred higher than 75%) are generally preferred for a generation and production of antibodies or fragments thereof, and/or T cell receptors or fragments thereof, as they show sufficient avidity to the MHC molecules and prevent dissociation of the MHC complexes.

Substance	Peptide Exchange (MHC class I binding score, peptide exchange yield)
80 (VLIEDELEEL; listed as Homo sapiens) [compound 80]	“++” (≥20% = ++)
43 (FLLGPEALSFA; listed as Homo sapiens) [compound 43]	“++++” (≥75% = ++++)
360 (HLIDTNKIQL; listed as Homo sapiens) [compound 360]	“+++” (≥50 = +++)
344 (VLAFENPQV; listed as Homo sapiens) [compound 344]	“+++” (≥50 = +++)
207 (IIADLDTTIMFA; listed as Homo sapiens) [compound 207]	“+++” (≥50 = +++)
359 (FMQDPMEVFV; listed as Homo sapiens) [compound 359]	“+++” (≥50 = +++)
253 (NLWSVDGEVTV; listed as Homo sapiens) [compound 253]	“+++” (≥50 = +++)
292 (AAALIIHHV; listed as Homo sapiens) [compound 292]	“+++” (≥50 = +++)
22 (ALWDPVIEL; listed as Homo sapiens) [compound 22]	“+++” (≥50 = +++)
148 (SIVASLITV; listed as Homo sapiens) [compound 148]	“+++” (≥50 = +++)
21 (ALWAGLLTL; listed as Homo sapiens) [compound 21]	“+++” (≥50 = +++)
260 (SLDDVEGMSV; listed as Homo sapiens) [compound 260]	“+++” (≥50 = +++)

Second part, the substance after the results:

Peptide Exchange (MHC class I binding score, peptide exchange yield)	Substance
“+” (≥10% = +)	98 (SLIKYFLFV; listed as Homo sapiens) [compound 98]
“+++” (≥50 = +++)	9 (ALCDTLITV; listed as Homo sapiens) [compound 9]
“+++” (≥50 = +++)	358 (FLTDYLNDL; listed as Homo sapiens) [compound 358]
“+++” (≥50 = +++)	362 (ILTELGGFEV; listed as Homo sapiens) [compound 362]
“+++” (≥50 = +++)	178 (VLFFNVQEV; listed as Homo sapiens) [compound 178]
“+++” (≥50 = +++)	364 (KMDWIFHTI; listed as Homo sapiens) [compound 364]
“+++” (≥50 = +++)	210 (KLLVQDFFL; listed as Homo sapiens) [compound 210]
“+++” (≥50 = +++)	53 (FLWQHVELVL; listed as Homo sapiens) [compound 53]
“+++” (≥50 = +++)	90 (VIADLGLIRV; listed as Homo sapiens) [compound 90]
“++” (≥20% = ++)	296 (FIAPTGHSL; listed as Homo sapiens) [compound 296]
“+++” (≥50 = +++)	39 (FLDALLTDV; listed as Homo sapiens) [compound 39]
“++” (≥20% = ++)	306 (VVAEELENV; listed as Homo sapiens) [compound 306]
“+++” (≥50 = +++)	369 (RLLDLENSLLGL; listed as Homo sapiens) [compound 369]
“++” (≥20% = ++)	97 (LLFATQITL; listed as Homo sapiens) [compound 97]
“++++” (≥75% = ++++)	195 (YLGGFALSV; listed as Homo sapiens) [compound 195]
“+++” (≥50 = +++)	339 (GLWGTVVNI; listed as Homo sapiens) [compound 339]
